# B1: FUSE-179 (5A1 VHH-human-Fc fusion protein) (Fc fusion)
# chain: QVQLQESGGGSVQAGGSLKLSCTASGYTNRLKCMGWFRQAPGKEREEIATISTGTGNTYYADSVKGRFTFSQDKVKNTVYLQMNTLKPDDTGMYYCAADVRPDGTTCHYNSGGQGTQVTVSS
# notes: VHH-human-Fc fusion; non-humanized 5A1; not shown: human Fc
# B2: FUSE608 (humanized CD3 clone 1F3.3 x humanized clone 5A1-FA9-HK1) (bispecific antibody)
# heavy: EVQLVESGGGLVQPGGSLRLSCAASGFTFSTYAMNWVRQAPGKGLEWVARIRSKYNNYATYYADSVKDRFTISRDDSKNTLYLQMNSLRAEDTAVYYCARHGNFGNSYVSWFAYWGQGTMVTVSSASTKGPSVFPLAPSSKSTSGGTAALGCLVKDYFPEPVTVSWNSGALTSGVHTFPAVLQSSGLYSLSSVVTVPSSSLGTQTYICNVNHKPSNTKVDKKVEPKSCDKTHTCPPCPAPEAAGGPSVFLFPPKPKDTLMISRTPEVTCVVVDVSHEDPEVKFNWYVDGVEVHNAKTKPREEQYNSTYRVVSVLTVLHQDWLNGKEYKCKVSNKALPAPIEKTISKAKGQPREPQVYTLPPSREEMTKNQVSLSCAVKGFYPSDIAVEWESNGQPENNYKTTPPVLDSDGSFFLVSKLTVDKSRWQQGNVFSCSVMHEALHNRFTQKSLSLSPGK
# VHH-Fc: EVQLLESGGGLVQPGGSLRLSCTASGYTNRLKCMGWFRQAPGKEREEIASISTGTGNTYYADSVKGRFTISRDKSRNTLYLQMNTLRAEDTAVYYCAADVRPHGTTCHYNSRGQGTQVTVSSEPKSSDKTHTCPPCPAPEAAGGPSVFLFPPKPKDTLMISRTPEVTCVVVDVSHEDPEVKFNWYVDGVEVHNAKTKPREEQYNSTYRVVSVLTVLHQDWLNGKEYKCKVSNKALPAPIEKTISKAKGQPREPQVYTLPPSREEMTKNQVSLWCLVKGFYPSDIAVEWESNGQPENNYKTTPPVLDSDGSFFLYSKLTVDKSRWQQGNVFSCSVMHEALHNHYTQKSLSLSPGK
# light: QAVVTQEPSLTVSPGGTVTLTCRSSTGAVTTSNYANWVQQKPGQAPRGLIGGTNKRAPGTPARFSGSLLGGKAALTLSGVQPEDEAEYYCALWYSNLWVFGGGTKLTVLGQPKAAPSVTLFPPSSEELQANKATLVCLISDFYPGAVTVAWKADSSPVKAGVETTTPSKQSNNKYAASSYLSLTPEQWKSHRSYSCQVTHEGSTVEKTVAPTECSGGGGSGGGGSGGGGSGGGGSEVQLLESGGGLVQPGGSLRLSCTASGYTNRLKCMGWFRQAPGKEREEIASISTGTGNTYYADSVKGRFTISRDKSRNTLYLQMNTLRAEDTAVYYCAADVRPHGTTCHYNSRGQGTQVTVSS
# B3: FUSE-112 (2A11 VHH-human-Fc fusion protein) (Fc fusion)
# chain: QVQLQESGGGSVPAGGSLRLSCAASGSTYSANCMGWFRQAPGKEREEVASMSIRSGRTYYSDSVKGRFTISQDGSKNTLYLQLNSLKAEDTALYYCAAAYGGSRCVYNYRGQGTQVTVSS
# notes: VHH-human-Fc fusion; non-humanized 2A11; also called 2A11-Fc; not shown: human Fc
# Experiments:
# [1] = molecular target: T1, human ROR1 (Receptor Tyrosine Kinase-Like Orphan Receptor 1) on the cell surface (human, UniProt Q01973 30-937); experiment: flow cytometry, LS174T cells expressing human ROR1 (low density)
# T1 construct: whole, on cells; engineered into B16-F10 (high density) and LS174T (low density) cells; also called B16-F10-ROR1-H; LS174T-ROR1-L
# T1 sequence (Q01973 30-937): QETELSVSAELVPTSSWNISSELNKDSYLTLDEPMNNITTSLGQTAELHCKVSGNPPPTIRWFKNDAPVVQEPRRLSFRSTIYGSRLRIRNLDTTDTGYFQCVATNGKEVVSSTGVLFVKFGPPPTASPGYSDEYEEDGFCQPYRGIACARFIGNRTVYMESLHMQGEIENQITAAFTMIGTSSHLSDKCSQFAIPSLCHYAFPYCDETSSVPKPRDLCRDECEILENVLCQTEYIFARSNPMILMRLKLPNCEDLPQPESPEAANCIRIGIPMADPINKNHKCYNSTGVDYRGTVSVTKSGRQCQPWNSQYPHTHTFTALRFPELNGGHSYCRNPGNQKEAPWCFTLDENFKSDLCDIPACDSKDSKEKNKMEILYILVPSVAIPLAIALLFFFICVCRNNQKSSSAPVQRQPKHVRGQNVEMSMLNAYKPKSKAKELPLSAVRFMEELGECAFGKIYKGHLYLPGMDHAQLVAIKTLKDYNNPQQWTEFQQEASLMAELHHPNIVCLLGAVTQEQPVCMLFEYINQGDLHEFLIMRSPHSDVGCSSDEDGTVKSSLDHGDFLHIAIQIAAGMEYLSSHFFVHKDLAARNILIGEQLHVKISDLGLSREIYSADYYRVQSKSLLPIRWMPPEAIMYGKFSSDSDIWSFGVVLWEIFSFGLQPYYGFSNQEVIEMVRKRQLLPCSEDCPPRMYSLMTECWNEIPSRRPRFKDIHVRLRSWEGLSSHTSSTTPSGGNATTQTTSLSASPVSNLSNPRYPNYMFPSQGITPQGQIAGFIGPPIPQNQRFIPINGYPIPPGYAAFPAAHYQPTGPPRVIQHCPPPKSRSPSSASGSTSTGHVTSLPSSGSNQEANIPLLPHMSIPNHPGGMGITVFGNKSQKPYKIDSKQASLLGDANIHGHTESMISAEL
# Experimental: (§1) As shown in the tables below, mouse B16-F10 melanoma (Tables 9A-9F) or LS174T human colorectal adenocarcinoma (Tables 9G-9H) cells genetically engineered to express human ROR1 at high and low densities, respectively, were stained for flow cytometric analysis with 100 nM of humanized variants of the ROR1 specific VHHs, 5A1 or 2A11 in either a VHH-Fc format or the Ac13 format shown in FIG. 1. Cells were analyzed on a flow cytometer after the primary test article was fluorescently tagged with a goat anti human IgG-Fc specific PE secondary antibody. The positive control used was PE conjugated anti-human ROR1 clone 2A2. Negative controls included a PE labeled mouse IgG Ab, the secondary antibody only, the combination of a Hen Egg Lysozyme (HEL) specific antibody plus goat anti human IgG-Fc specific PE and Fluorescence Minus One (FMO). Other controls included the non-humanized version of 5A1-Fc (FUSE179), 2A11-Fc (FUSE112) and 5A1-Ac13 (FUSE488). Humanized variants were generated using computational design (FUSE489, FUSE497-498, FUSE563, FUSE569-570, and BI-HU9-VHH11-33), a yeast display library in which mutations were inserted into the Vernier zone residues of human framework indicated in GenBank accession number M99660 (FUSE524-525, FUSE589, FUSE597-598, FUSE537, FUSE661-662, BI-HU9-HK and BI-HU9-HK-1), and a second yeast display library in which mutations were inserted into the Vernier zone residues of human framework indicated in GenBank accession number AWH66715 and amino acid position 103 within CDR3 (FUSE559, FUSE590-596, BI-HU9-VH9-1, FUSE654-655 and FUSE661-662. Affinity matured variants of FUSE559 were also generated using computational design (F22158101-21; Table 9H).
# [2] = molecular target: T2, recombinant His tagged human ROR1 (human, UniProt Q01973 30-403, limits assumed); experiment: BLI (Octet), VHH-Fc loaded on the biosensor, His tagged ROR1 in solution
# T2 construct: Analyte in the BLI assay; also called Human ROR1-His; recombinant ROR1
# T2 sequence (Q01973 30-403 limits assumed): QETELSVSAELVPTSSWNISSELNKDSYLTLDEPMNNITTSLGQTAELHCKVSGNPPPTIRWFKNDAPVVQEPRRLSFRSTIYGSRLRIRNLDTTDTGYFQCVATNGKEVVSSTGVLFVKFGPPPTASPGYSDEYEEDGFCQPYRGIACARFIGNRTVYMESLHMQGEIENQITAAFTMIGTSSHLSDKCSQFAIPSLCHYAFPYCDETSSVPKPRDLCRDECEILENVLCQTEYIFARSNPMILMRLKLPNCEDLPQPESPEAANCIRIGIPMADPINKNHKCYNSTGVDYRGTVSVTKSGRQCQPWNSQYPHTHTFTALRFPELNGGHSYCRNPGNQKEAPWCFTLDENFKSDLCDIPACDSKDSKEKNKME
# [3] = molecular target: T2, recombinant His tagged human ROR1; experiment: SPR (Biacore 8K), recombinant human ROR1 amine-coupled on a CM5 chip (4400 RU), analyte 200nM, 1:1 binding fit [table below it]
# Experimental: (§2) Protein test article binding to recombinant human ROR1 (Acro Biosystems, RO1-H522y) was detected on a BIAcore 8K (Cytiva) biosensor system using an SPR assay. Briefly, a carboxymethylated CM5 sensor chip was activated with 1:1 mixture of 0.4 M N-ethyl-N-(3-dimethylaminopropyl) carbodiimide and 0.1 M′ N-hydroxysuccinimide. Recombinant human ROR1 in 10 mM NaOAc (pH5) was then immobilized on the sensor chip by amine-coupling according to the manufacturer's instructions to yield the stable RU of 4400. Unreacted sites were blocked with 1M ethanolamine/HCl (pH 8). Control flow cells (blank) were activated and blocked in the absence of ROR1. Flow cells were routinely equilibrated with running buffer (PBS, 0.005% surfactant P20). Test article proteins used for assessment of binding to recombinant human ROR1 binding were diluted in HBS-EP running buffer and injected into the sensor chip at different concentrations. […] Data from duplicate assays were modeled for binding equilibrium and dot plots for 200 nM of protein test article was calculated. Association constant (ka), dissociation constant (kd) and binding affinity (KD=kd/ka) were generated from integrated software in the BIAcore 8K system.
# (§3) Shown are sensorgrams of surface plasmon resonance (SPR) data generated via Biacore analysis. A summary table of binding affinity (KD), on rate (k-a) and off rate (kd) is shown below FIG. 16B.
# [4] = molecular target: T1, human ROR1 (Receptor Tyrosine …); experiment: flow cytometry, B16-F10 cells expressing human ROR1 (high density)
# Experimental: as §1
# [5] = molecular target: T1, human ROR1 (Receptor Tyrosine …); experiment: as above; remark: listed apart in the source
# Experimental: as §1
# [6] = molecular target: T1, human ROR1 (Receptor Tyrosine …); experiment: flow cytometry on B16-F10 cells engineered to express human ROR1, secondary antibody to the IgG1 Fc
# Experimental: As shown in FIG. 15 the apparent binding affinity (EC50-binding) of the ROR1 specific VHH-Fc incorporating either the non humanized VHH clone 5A1 (FUSE179; black circle), the humanized clone 5A1-FA9-HK1 (FUSE559; black square) or the humanized clone 5A1-HK1 (FUSE524; black triangle) was calculated. Shown is a non-linear x-y plot of binding to B16-F10 cell engineered to express human ROR1 relative to the concentration of test article used for staining. A Hen Egg Lysozyme (HEL)-specific antibody was used as the negative isotype control. Binding was measured via flow cytometry using a fluorescently labeled secondary antibody specific for the Fc domain of IgG1. A summary table of EC50s and maximum MFI is shown beneath under the graph.
# [7] = molecular target: T2, recombinant His tagged human ROR1; experiment: SPR (Biacore 8K), recombinant human ROR1 amine-coupled on a CM5 chip (4400 RU), analyte 200nM, 1:1 binding fit; column 'kd (1/s)' [table below it]
# Experimental: as §2, §3
# [8] = molecular target: T1, human ROR1 (Receptor Tyrosine …); experiment: flow cytometry, LS174T cells expressing human ROR1 (low density); remark: listed apart in the source
# Experimental: as §1
# [9] = molecular target: T1, human ROR1 (Receptor Tyrosine …); experiment: flow cytometry, B16-F10 cells expressing human ROR1 (high density); remark: listed apart in the source
# Experimental: as §1
# [10] = molecular target: T2, recombinant His tagged human ROR1; experiment: BLI (Octet), FUSE protein on the tip, His tagged ROR1 in solution; 5A1 parental VHH-Fc
# Experimental: (§4) As shown in FIGS. 5A-5D, the binding affinities (KD) of TCEs for ROR1 were assessed. We examined the magnitude by which several TCEs and mutants thereof bind to recombinant ROR1. Kinetic binding graphs were generated via Bio-Layer Interferometry (BLI) using an Octet system. For each TCE, the biosensor tips were coated with FUSE proteins at 15 μg/ml and probed with either recombinant His tagged ROR1 at concentrations ranging from 100 pM to 10 μM. […] The binding affinity (KD), on rate (k-on) and off rate (k-dis), are summarized for ROR1 in FIG. 5D.
# (§5) We further examined the impact of mutating the cysteine residues located in CDR1 and CDR3 of 2A11 VHH and 5A1 VHH.
# [11] = molecular target: T1, human ROR1 (Receptor Tyrosine …); experiment: flow cytometry, B16-F10 cells expressing human ROR1 (high density); remark: listed apart in the source
# Experimental: as §1
# [12] = molecular target: T2, recombinant His tagged human ROR1; experiment: SPR (Biacore 8K), recombinant human ROR1 amine-coupled on a CM5 chip (4400 RU), analyte 200nM, 1:1 binding fit; column '1:1 binding ka (1/Ms)' [table below it]
# Experimental: as §2, §3
# [13] = molecular target: T1, human ROR1 (Receptor Tyrosine …); experiment: flow cytometry, B16-F10 cells expressing human ROR1 (high density); remark: listed apart in the source
# Experimental: as §1
# [14] = molecular target: T2, recombinant His tagged human ROR1; experiment: BLI (Octet), VHH-Fc loaded on the biosensor, His tagged ROR1 in solution; column 'kdis(1/s)'
# [15] = molecular target: T1, human ROR1 (Receptor Tyrosine …); experiment: flow cytometry on ROR1+ MDA-MB-231 cells, secondary antibody to the IgG1 Fc; table row 'Binding EC50 (nM)', the graph's axis reads 'Concentration (pM)'
# human CD3 on T cells = molecular target: T3, human CD3 on T cells (human, UniProt P07766 23-207; P09693 23-182; P04234 22-171; P20963 22-164); experiment: flow cytometry on CD3+ Jurkat NFAT Lucia cells, secondary antibody to the IgG1 Fc
# T3 construct: whole, on cells; also called human CD3 on Jurkat T cells; human CD3 on T cells isolated from human PBMC
# T3 sequence (P07766 23-207, chain 1 of 4): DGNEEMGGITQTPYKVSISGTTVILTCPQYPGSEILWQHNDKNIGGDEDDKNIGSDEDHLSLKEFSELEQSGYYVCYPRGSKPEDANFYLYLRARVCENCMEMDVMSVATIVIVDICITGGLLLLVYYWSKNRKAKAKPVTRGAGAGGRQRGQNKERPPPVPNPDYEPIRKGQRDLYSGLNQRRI
# T3 sequence (P09693 23-182, chain 2 of 4): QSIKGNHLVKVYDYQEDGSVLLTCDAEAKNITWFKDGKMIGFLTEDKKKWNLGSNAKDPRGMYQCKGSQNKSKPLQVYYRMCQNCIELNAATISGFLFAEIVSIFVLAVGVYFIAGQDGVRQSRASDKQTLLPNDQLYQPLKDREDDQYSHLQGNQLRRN
# T3 sequence (P04234 22-171, chain 3 of 4): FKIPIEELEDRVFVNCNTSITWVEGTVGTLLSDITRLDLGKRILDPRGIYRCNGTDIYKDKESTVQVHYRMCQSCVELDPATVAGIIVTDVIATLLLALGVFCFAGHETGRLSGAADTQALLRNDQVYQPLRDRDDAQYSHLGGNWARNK
# T3 sequence (P20963 22-164, chain 4 of 4): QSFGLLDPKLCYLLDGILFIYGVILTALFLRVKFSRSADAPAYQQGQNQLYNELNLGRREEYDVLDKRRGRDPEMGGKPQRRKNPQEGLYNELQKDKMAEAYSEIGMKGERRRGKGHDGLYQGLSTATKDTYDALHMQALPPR
# [16] = molecular target: T1, human ROR1 (Receptor Tyrosine …); experiment: cell-based or functional assay
# [17] = molecular target: T2, recombinant His tagged human ROR1; experiment: BLI (Octet), FUSE protein on the tip, His tagged ROR1 in solution; 2A11 parental VHH-Fc
# Experimental: as §4, §5
# [18] = molecular target: T2, recombinant His tagged human ROR1; experiment: BLI (Octet), VHH-Fc loaded on the biosensor, His tagged ROR1 in solution; remark: listed apart in the source
# [19] = molecular target: T2, recombinant His tagged human ROR1; experiment: BLI (Octet), VHH-Fc loaded on the biosensor, His tagged ROR1 in solution; column 'kdis(1/s)'; remark: listed apart in the source
binder,measurement,setting,value
B1,MFI,[1],3060
same,Kd,[2],36 nM
same,kon,[2],48200 M⁻¹ s⁻¹
same,Kd,[3],7.38 nM
same,MFI,[4],3730
same,MFI,[5],4220
same,EC50,[6],2.04 nM
same,Max MFI,[6],4900 MFI
same,koff,[7],0.00106 s⁻¹
same,MFI,[8],836
same,MFI,[9],93800
same,Kd,[10],~4 nM
same,MFI,[11],8480
same,kon,[12],144000 M⁻¹ s⁻¹
same,MFI,[13],4480
same,koff,[14],0.00174 s⁻¹
B2,EC50,[15],2.9 nM
same,EC50,human CD3 on T cells,8.18 nM
same,"fold decrease in T cell mediated IFNγ release with ROR1+ MDA-MB-231, potency against FUSE399",[16],~25 fold
B3,Kd,[17],~4 nM
same,Kd,[18],42.4 nM
same,kon,[18],43100 M⁻¹ s⁻¹
same,MFI,[8],4340
same,koff,[19],0.00183 s⁻¹
same,MFI,[9],208000
same,MFI,[11],11900
same,MFI,[13],7840
